Reference: article doi:10.1101/2020.11.13.381095 (bioRxiv, 2020)

T1: adrenodoxin (human, UniProt P10109 61-184)
T1 sequence (looked up): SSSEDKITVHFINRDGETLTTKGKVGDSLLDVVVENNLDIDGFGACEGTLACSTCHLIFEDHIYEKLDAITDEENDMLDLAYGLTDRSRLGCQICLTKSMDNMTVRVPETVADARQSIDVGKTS


Columns and labels:
Experiment in all cases: SPR
[1] = molecular target: T1, adrenodoxin
[2] = molecular target: T1, adrenodoxin; remark: listed apart in the source
[3] = molecular target: T1, adrenodoxin; remark: listed apart in the source
[4] = molecular target: T1, adrenodoxin; remark: listed apart in the source
[5] = molecular target: T1, adrenodoxin; remark: listed apart in the source
[6] = molecular target: T1, adrenodoxin; remark: listed apart in the source
[7] = molecular target: T1, adrenodoxin; remark: listed apart in the source
[8] = molecular target: T1, adrenodoxin; remark: listed apart in the source
[9] = molecular target: T1, adrenodoxin; remark: listed apart in the source

Binder | fold increase of Kd with 22R-hydroxycholesterol against cholesterol [1] | fold change of koff with cholesterol against ligand-free [2] | fold increase of kon with cholesterol against ligand-free [2] | fold decrease of kon with 20S-hydroxycholesterol against ligand-free [3] | fold increase of Kd with 20S-hydroxycholesterol against ligand-free [3] | fold decrease of kon with 25-hydroxycholesterol against ligand-free [4] | fold increase of Kd with 25-hydroxycholesterol against ligand-free [4] | fold decrease of kon with 20R,22R-dihydroxycholesterol against ligand-free [5] | fold increase of Kd with 20R,22R-dihydroxycholesterol against cholesterol [5] | fold increase of Kd with 20R,22R-dihydroxycholesterol against ligand-free [5] | fold increase of koff with 20R,22R-dihydroxycholesterol against ligand-free [5] | fold increase of Kd with pregnenolone against cholesterol [6] | fold increase of koff with 11-deoxycortisol against ligand-free [7] | fold increase of kon with 11-deoxycortisol against ligand-free [7] | fold increase of Kd with 11-deoxycorticosterone against ligand-free [8] | fold increase of koff with 11-deoxycorticosterone against ligand-free [8] | fold increase of kon with 11-deoxycorticosterone against ligand-free [8] | fold increase of Kd with 11-deoxycortisol against ligand-free [7] | fold change of Kd with corticosterone against ligand-free [9]
cytochrome P450 CYP11A1 (cholesterol side chain cleavage enzyme) (enzyme, human) STRSPRPFNEIPSPGDNGWLNLYHFWRETGTHKVHLHHVQNFQKYGPIYREKLGNVESVYVIDPEDVALLFKSEGPNPERFLIPPWVAYHQYYQRPIGVLLKKSAAWKKDRVALNQEVMAPEATKNFLPLLDAVSRDFVSVLHRRIKKAGSGNYSGDISDDLFRFAFESITNVIFGERQGMLEEVVNPEAQRFIDAIYQMFHTSVPMLNLPPDLFRLFRTKTWKDHVAAWDVIFSKADIYTQNFYWELRQKGSVHHDYRGILYRLLGDSKMSFEDIKANVTEMLAGGVDTTSMTLQWHLYEMARNLKVQDMLRAEVLAARHQAQGDMATMLQLVPLLKASIKETLRLHPISVTLQRYLVNDLVLRDYMIPAKTLVQVAIYALGREPTFFFDPENFDPTRWLSKDKNITYFRNLGFGWGVRQCLGRRIAELEMTIFLINMLENFRVEIQHLSDVGTTFNLILMPEKPISFTFWPFNQEATQQ | 4 fold | ~1.5 fold | 4 fold | 2 fold | 3.1 fold | 2 fold | 4.6 fold | 2 fold | ~10 fold | ~3.4 fold | ~1.8 fold | ~21 fold | – | – | – | – | – | – | –
cytochrome P450 CYP11B1 (11ß-hydroxylase) (enzyme, human) VPRTVLPFEAMPRRPGNRWLRLLQIWREQGYEDLHLEVHQTFQELGPIFRYDLGGAGMVCVMLPEDVEKLQQVDSLHPHRMSLEPWVAYRQHRGHKCGVFLLNGPEWRFNRLRLNPEVLSPNAVQRFLPMVDAVARDFSQALKKKVLQNARGSLTLDVQPSIFHYTIEASNLALFGERLGLVGHSPSSASLNFLHALEVMFKSTVQLMFMPRSLSRWTSPKVWKEHFEAWDCIFQYGDNCIQKIYQELAFSRPQQYTSIVAELLLNAELSPDAIKANSMELTAGSVDTTVFPLLMTLFELARNPNVQQALRQESLAAAASISEHPQKATTELPLLRAALKETLRLYPVGLFLERVASSDLVLQNYHIPAGTLVRVFLYSLGRNPALFPRPERYNPQRWLDIRGSGRNFYHVPFGFGMRQCLGRRLAEAEMLLLLHHVLKHLQVETLTQEDIKMVYSFILRPSMFPLLTFRAIN | – | – | – | – | – | – | – | – | – | – | – | – | ~3.2 fold | 4 fold | 2.4 fold | 4.4 fold | ~2 fold | – | –
cytochrome P450 CYP11B2 (aldosterone synthase) (enzyme, human, UniProt P19099 25-503, looked up) GTRAARAPRTVLPFEAMPQHPGNRWLRLLQIWREQGYEHLHLEMHQTFQELGPIFRYNLGGPRMVCVMLPEDVEKLQQVDSLHPCRMILEPWVAYRQHRGHKCGVFLLNGPEWRFNRLRLNPDVLSPKAVQRFLPMVDAVARDFSQALKKKVLQNARGSLTLDVQPSIFHYTIEASNLALFGERLGLVGHSPSSASLNFLHALEVMFKSTVQLMFMPRSLSRWISPKVWKEHFEAWDCIFQYGDNCIQKIYQELAFNRPQHYTGIVAELLLKAELSLEAIKANSMELTAGSVDTTAFPLLMTLFELARNPDVQQILRQESLAAAASISEHPQKATTELPLLRAALKETLRLYPVGLFLERVVSSDLVLQNYHIPAGTLVQVFLYSLGRNAALFPRPERYNPQRWLDIRGSGRNFHHVPFGFGMRQCLGRRLAEAEMLLLLHHVLKHFLVETLTQEDIKMVYSFILRPGTSPLLTFRAIN | – | – | – | – | – | – | – | – | – | – | – | – | – | – | 11 fold | 7 fold | – | 4.7 fold | 1.7 fold
